The results in this text go back to patent publication US20190309060A1 (PHILOGEN S P A, published 2019).

The target of test [1] is T1, human galectin-2, natively expressed (LS174T cells; human colon biopsy sections) (human, UniProt P05162 1-132).
T1 construct: Cytoplasmic protein in fixed, methanol-permeabilized LS174T cells, and native protein in frozen colon sections; also called natively expressed galectin-2 antigen
T1 sequence: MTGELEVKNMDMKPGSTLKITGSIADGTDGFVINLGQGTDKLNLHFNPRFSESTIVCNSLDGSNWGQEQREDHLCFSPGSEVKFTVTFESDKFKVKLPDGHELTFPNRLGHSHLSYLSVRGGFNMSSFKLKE
Nature of the test: immunofluorescence of frozen healthy colon sections, biotinylated IgG, streptavidin-alexa 488. The protocol: (§1) Detection of the primary antibody was performed with streptavidin-alexa 488 (Invitrogen). Blood vessels were detected using a mouse anti-human CD31 antibody (eBioscience) followed by detection with an anti-mouse alexa 594 antibody (Invitrogen). Counterstaining for cell nuclei was performed with DAPI (eBioscience).
(§2) (i) Freshly frozen colon biopsy samples from a healthy donor were stained according to already published methods (Pfaffen et al., Eur J Nucl Med Mol Imagin (2010) 37: 1559-65). Briefly, purified biotinylated antibodies in IgG format were added at the final concentration of 2 μg/ml onto the sections. Detection of the primary antibody was performed with streptavidin-alexa 488 (Invitrogen). Blood vessels were detected using a mouse anti-human CD31 antibody (eBioscience) followed by detection with an anti-mouse alexa 594 antibody (Invitrogen). Counterstaining for cell nuclei was performed with DAPI (eBioscience).
(§3) (ii) Freshly frozen colon biopsy samples from a healthy donor were stained according to already published methods (Pfaffen et al., Eur J Nucl Med Mol Imagin (2010) 37: 1559-65). Briefly, purified biotinylated antibodies in IgG format were added at the final concentration of 2 μg/ml onto the sections. […] Blood vessels were detected using a mouse anti-human CD31 antibody (eBioscience) followed by detection with an anti-mouse alexa 594 antibody (Invitrogen). […]

The target in test [2] is T2, human Agr2, native, in human colon biopsy sections (human, UniProt O95994 21-175).
T2 construct: Native protein in healthy-donor colon and ulcerative colitis sections; also called human Agr2 antigen
T2 sequence: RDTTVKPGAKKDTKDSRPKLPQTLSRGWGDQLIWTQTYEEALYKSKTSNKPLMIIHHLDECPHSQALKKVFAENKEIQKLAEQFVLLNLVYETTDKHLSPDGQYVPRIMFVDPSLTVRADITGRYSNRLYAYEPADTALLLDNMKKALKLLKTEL
The description is as above. The procedure: as §1, §2, §3

The target of test [3] is T3, human cadherin-17, native, in human ulcerative colitis biopsy sections (human, UniProt Q12864 23-832).
T3 construct: Native protein in tissue; also called cognate antigen (of AV17)
T3 sequence: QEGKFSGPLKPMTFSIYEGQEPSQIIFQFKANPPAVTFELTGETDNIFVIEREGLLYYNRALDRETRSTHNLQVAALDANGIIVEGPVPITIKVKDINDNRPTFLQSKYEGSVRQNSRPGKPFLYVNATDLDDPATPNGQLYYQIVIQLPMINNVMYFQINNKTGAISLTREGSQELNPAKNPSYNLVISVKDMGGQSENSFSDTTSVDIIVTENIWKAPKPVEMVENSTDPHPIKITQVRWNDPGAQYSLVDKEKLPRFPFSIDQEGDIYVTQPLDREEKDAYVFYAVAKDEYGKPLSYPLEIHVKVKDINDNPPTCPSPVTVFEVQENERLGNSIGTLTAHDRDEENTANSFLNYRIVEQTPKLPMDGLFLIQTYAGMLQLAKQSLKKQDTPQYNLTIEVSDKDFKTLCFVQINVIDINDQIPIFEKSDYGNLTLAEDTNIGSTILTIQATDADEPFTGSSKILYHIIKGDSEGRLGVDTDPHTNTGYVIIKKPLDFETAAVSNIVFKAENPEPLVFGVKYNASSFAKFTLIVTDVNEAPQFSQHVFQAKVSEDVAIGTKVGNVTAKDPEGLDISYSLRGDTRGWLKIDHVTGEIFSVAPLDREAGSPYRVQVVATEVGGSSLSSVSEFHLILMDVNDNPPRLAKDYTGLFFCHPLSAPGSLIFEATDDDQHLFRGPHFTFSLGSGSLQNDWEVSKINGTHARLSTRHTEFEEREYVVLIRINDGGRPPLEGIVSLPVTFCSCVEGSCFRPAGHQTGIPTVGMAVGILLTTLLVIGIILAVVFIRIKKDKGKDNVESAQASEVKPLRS
The test is described as follows: immunofluorescence of frozen human ulcerative colitis sections, human IgG1 format, rabbit anti-human IgG and goat anti-rabbit Alexa 488. The procedure:
Purified antibodies in human IgG1 format were added at the final concentration of 2 μg/ml to the sections. […] A positive control was performed by counterstaining for cell nuclei was performed with DAPI (eBioscience). Sections were mounted with fluorescent mounting medium (DAKO) followed by analysis using an Axioskop2 microscope with a 10× objective (Carl Zeiss AG, Jena, Germany). A stronger intensity signal in the colonic crypts region can be detected in the sections stained with CPR02, AV17 and FF06 when compared to the signal observed with an irrelevant antibody (Negative Control).
Freshly frozen human biopsy samples of Ulcerative Colitis were stained as described in the following lines. In brief, purified antibodies in human IgG1 format were added at the final concentration of 2 μg/ml to the sections. […] Further positive control was performed by counterstaining for cell nuclei was performed with DAPI (eBioscience). Sections were mounted with fluorescent mounting medium (DAKO) followed by analysis using an Axioskop2 microscope with a 10× objective (Carl Zeiss AG, Jena, Germany).

Where a chain is given by its changes, count along the chain named.

B1: FF06 in IgG format (antibody, V domains shown)
VH: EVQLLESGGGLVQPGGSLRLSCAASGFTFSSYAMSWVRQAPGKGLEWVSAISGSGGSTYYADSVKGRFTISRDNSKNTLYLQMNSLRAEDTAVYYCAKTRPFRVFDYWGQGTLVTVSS
VL: SSELTQDPAVSVALGQTVRITCQGDSLRSYYASWYQQKPGQAPVLVIYGKNNRPSGIPDRFSGSSSGNTASLTITGAQAEDEADYYCNSSRSRRPAVVFGGGTKLTVLG
notes: also called anti-Galectin-2 (FF06)
In the case of B1, in test [1], the binding result is on record as “binds”.

B2: CPR02 in IgG format (antibody, V domains shown)
VH: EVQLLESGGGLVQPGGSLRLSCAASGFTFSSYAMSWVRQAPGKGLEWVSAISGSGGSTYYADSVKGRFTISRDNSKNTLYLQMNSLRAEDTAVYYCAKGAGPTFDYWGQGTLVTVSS
VL: B1 VL with R91P, S92P, R93T, P95A, A96V
notes: also called anti-Agr2 (CPR02)
On to B2, for which, in test [2], the binding result was “binds”.

B3: AV17 in human IgG1 format (antibody, V domains shown)
VH: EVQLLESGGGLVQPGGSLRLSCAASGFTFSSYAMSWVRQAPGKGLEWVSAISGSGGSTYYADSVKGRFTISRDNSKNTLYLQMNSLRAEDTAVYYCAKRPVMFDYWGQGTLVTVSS
VL: B1 VL with R91L, S92P, R93S, R94P, P95Q, A96V
notes: Human IgG1 format; also called anti-cadherin 17 (AV17)
With B3, the binding result in test [3] was “binds”.
